Measured values taken from the nanobody polyreactivity screen of Harvey et al. (2022).

Assay: yeast display, Sf9 membrane polyspecificity reagent, FACS + sequencing; frameworks hold sequencing errors
Procedure, shortened: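 Galactose induction of a Saccharomyces cerevisiae BJ5465 synthetic nanobody display library ran 36–48 hours. The cells were then stained for 1 hour at 4 °C with 10% biotinylated, detergent-solubilized Sf9 membrane reagent, pulled down on streptavidin microbeads and FACS-sorted into low and high (top ~1%) gates on expression and reagent-binding fluorescence. Labels for polyreactivity follow the gate of origin.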

Sequence	polyreactivity (PSR sort gate)
QVQLQESGGGLVQVGGSQRLSCAASGNNFYNYAMGWYRHAQGKEREFDATINHGTSINYADSVKGRFTISRDNAKNTVYLQMNSLKPEDTAVYYCAADLSWTDNLFYWGQGTQVTVSS	low polyreactivity
QVQLQESGGGLVQVGGSQSLICAASGNIFYNYAMGWYRHAQGKEREFDATINHGTSINYADSVKGRFTISRDNAKNTVYLQMNSLKPEDTAVYYCAADLSRTDNLFYWGQGTQVTVSS	low polyreactivity
QVQLQESGGGMVQAGGSLRLSCAASGSIFVSVTMGWYRQAPGKERELVASIGRGSTTNHADSVKGLFTISRDNAKNIVYLLMNSLKPEDTAVYYCAALESYAKYHGYWGQGTQVTVSS	low polyreactivity
QVQLQESGGGQVQAGGSLRLSCAASGSIYDDTYMGWYRQAPGKERELVATIDSGSTTNYADSVIGRITISRDNAKNTVYLQMNSLKPEDTAVYYCAAADSHIDYFDYWGQGTQVTVSS	low polyreactivity
QVQLQESGGGQVQAGGSLRLSCAASGTISPLPAMGWYRQAPGKEREFVAGIDTGAITNYADSVKGRFTISRDNAKNTVYLQMISLKPEDTAVYYCAVFPAAYDYYERYYTYWGQGTQVYVSS	low polyreactivity
QVQLQESGGGQVQAGGSLRLSCAASGYISTHYFMGWYRQAPGKDREFVAGISNGSITNYADSVKGRFTISRDNARNTVYLQMNSLKPEDTEVYYGAAYEWTYVRFGYWGQGTQVTVSG	high polyreactivity
QVQLQESGGGQVQAGGSLRQSCAASGSIFQATYMGWDRQAPSKEREFVASITYGSITNYADSVKGRFTIGRDNAKDTWYLQMNSLKPEDAAVYYCAVDRHYIPAFHYWGQGTQVNVSS	low polyreactivity
QVQLQESGGGVQAGGSLRLSCAASGSISAPILMGWYRQAPGKERELVAGIGGGANTYYADSVKGRFTVSRDNAKYTVYLQMNSLKPEDTAVYYCAAGDYYWTNFGYWGQGTQVTASS	high polyreactivity
QVQLQESGGGVQAGGSLRLSCAASGSISAPILMVWYRQAPGKERELVAGIGGGANTYYADSVKGRFTVSRDNAKYTVYLQMNSLKPEDTAVYYCAAGDYYWTNFGYWGQGTQVTASS	high polyreactivity
QVQLQESGGLVQAGGSLRLSCAASGSISGRNVMGWYRQSPGKEREFVASITDGSSNNYADSVKGRFTISRDNAKNTVYLQMNSLKPKDTAVYYCAAYAQRAKSFGYWGRGTQVTVSS	low polyreactivity
QVQLQESGGLVQAGGSLRMSCAASGSISGRNVMGWYRQAPGKEREFVASITDGSSTNYADSVKGRFTISRDNAKNTLFLQMNSLKPKDTAVYYCAAYAQRGKSFGYWGRGTQVTVSS	low polyreactivity
QVQLQESGGVLVQEGGSLRLSCAASGNISPQADMGWYRQATGTERELVASIGTGGTTNYADSVKGRFTISRDNAKNTVYLQMNRLKPDDTAVYYCAAVRYEYNPYDYWGQGTQVTVSS	low polyreactivity
QVQLQESGRRPGSAGVSPRMSCAASGNIFWVAVMCRYRQAPGKERELVASIGFGCTTYYADSVKCRFTISRDNAKITVYLQMLSLKPFDTAVYYCAAPHYDWGELDYWGQGTQVPVSS	low polyreactivity
QVQLQESGVRMVQAGGSLRLSCAASGNIFLGDTMGWYRQAPGKEREFVAGIARGGNPYYADSEKGRLTISRNNANNTVYLEKISLKPEDSAVHYCSVQRSDASDYNYWGQGTQVTVIS	low polyreactivity
QVQLQESRGGLVQAGGSLRLICAASGSISCPHVMGWYRQAPGKEREFVAAINVGANTYYADNVKGRFTISRDNAKNTVYLQKNSLKPEATAVYYCAAVYYGDIGHEYWGQGTQVTVSC	low polyreactivity
QVQLQESVGGLVQADGSLRLSCAASGTIFTQSYMGWYRQAPGKEREFVAGISNGTKTNYGDSVKGRFTISRDNAKNTVYLQMHRLKLEDTAVYYCAVKGFYVDVLAYWGQGTHVTVSS	high polyreactivity
QVQLQESVGLVQAGGLRLSCAASGSVSYQEAMGWYRQAPAKERELVATISFGANTNYADSVKGRFTISRDNAKNTVYLQMNCLKPEDTAVYYCAAESLFDDYYGYWGQGTQVTVSS	low polyreactivity
QVQLQGSGAGLVQAGGSLRLSCAPSGYILQNVPMGWNRQAPGKERELVAGIDNGTSTNYADSVNGSFTISRDNAKNTVYLQMNSLKPEDTAVYYCAAAGQADETLGYWGQGTQVTVSR	low polyreactivity
QVQLQGSGGGLAQAGDSLRLSCAASGTIFSEYNNGLVSPGAGQRTRTCCRYWCWGNTYYADSAKGRFTTSRDNANNTVYLQKNSLIPEDTAVYYCAFNRPYPSRHIYRGQGTQVTVSS	high polyreactivity
QVQLQVSGGDLVPAGGSLRLSCAGSGTIYGLTSMAWYRQAPGKEREFVAAITDGGNANYADSVKGRFTISRDNAKNTVYLQMISLKPEDTAVYYCAVLFSDDAYYAYWGQGTQVTVSS	low polyreactivity
QVQLQVSGGDLVQAGGSLRMSCAASGTIYGLTSMGWNRQAPGKEREFVAAITDGGNTNYADSVKGRFTISRDNAKNTVYLQMISLKPEDTAVFYCAVLFSDDAYYAYWGQGTQVNVSS	low polyreactivity

Sequence	polyreactivity (PSR sort gate)
QVQLRESGAGGRQPAPELRCERQYFYWSADGLVSQPPGKEREFVAGIDRGTITNYADSVRGRFTISRDNAKNTVYLQMNSLKPEDTAVYYCNAEYRRRPKLGDEDEYWGHGTQVTVSS	high polyreactivity
QVQLRESGCGLVQAGGNLRLSCAASGNIFDADIMGWYGQAPGKERELVASITEGGSTNYADSVRCRFTISRDNAKNTVYLQMISLKPEDTAVYYCTAIAYPDIPTYFDHDSDYFYWGQGTQVTVSS	high polyreactivity
QVQLRESGCGLVQAGGNLRLSCAASGNIFDADIMGWYRQAPGKERELVASITDGGSTYYADSVRCRFTISRDNAKNTVYLQMNSLKPEDTAVYYCTAIAYPDIPTYFDHDSDYFYWGQGTQVTVSS	high polyreactivity
QVQLRESGGGLVQAGGSLRLSCAASGRIFSVYAMGWDRQAPGKERELVAAITRVGSTNYADSVKGRFTISRDNAKNTVYLQMNSLKPEDTAVYYCAARSTGYPTGRMYYWGQGTQVTVSS	high polyreactivity
QVQLRESGGGLVQAGGSLRLSCAASGRILYSYAMGWYRQAPGKERELVAAISWRGGPTYYADSVKGRFTISRDYAKNSVYLPMNSLKPEDTAVYYCAAEFYDLPWLYDYWGQGTQVTVSS	low polyreactivity
QVQLVASGGGLLQAGGSLRLSCAASGIIFDRYTMGWYRQAPGKERELVASISDDDGSTYYADSVKGRFTISRDNAKNTVYLQMNSLTPEDTAVYYCKALSIIFDYWGQATQVTVSS	low polyreactivity
QVQLVASGGGLVHAGGSLRLSCAASGRIFTHNAMGWSRQAPGKEREMVAAITSGGRTTYADSVKGRFTISRDNAKNTVYFQMNSLKPEDTAVYYCNADTGLGSLDFDKRDYWGQGTQVTVSS	low polyreactivity
QVQLVASGGGLVQTGGSLRLSCAASGSTCVWYTIGWYRQAPGKERELVADISRSGGSTYYADSVKGRFTISRDNAKKTIYLQKNSLKAEDTAVYYCARYGYVYNTREPPKVVTFDYSGQGTQVTVSS	high polyreactivity
QVQLVASRGGLVQAGGILRLSSAASGSTFPSYEMGWYRQARGKERELVAAINSGRGSNYADSVKGRFTISRDNAKNTVYLQMNCLIPDDTAVYYCGISRYDYTNTEGGYWGQGTQVTVSS	low polyreactivity
QVQLVDSAGGLVQAGGILRLSCAASGFTFDAKSRGWYRQAPGTERELVDAISLSDGSTYYADSVKGRFTISRDNAKNTVYLQMNSLKPEDTAVYYCNAERFGSGLAWLLFDYWGQGTQVTVSS	low polyreactivity
QVQLVDSAGGLVQAGGSLRLSCAASGFIFRRNAMGWYRQAPGKERELVAGINRSGTRTYYADSVKGRFTISRDNAKNTVNLQMNSLKPEDTAVYYCAALVYRPTYGYIFDYWGQGTQVTVSS	high polyreactivity
QVQLVDSAGGLVQAGGSLRLSCAASGSIFFRYAMGGYRQAAGKERELVAAITQRTGSTYYADSVKGRFTISRDNAKITVYLQMNSLKPEDTAVYYCAAKRWRRSFTGNYWGQGTQVTVSS	high polyreactivity
QVQLVDSAGGLVQAGGSLRLSCAASGSIINSNAMGWYRQAPGKERELVAAINWRGGSTYYADSVKGRFTISRDNAKNTVYLQMNSLKPEDTAVYYCNALRRAPRAEYYYGGQGTQVTVSS	high polyreactivity
QVQLVDSAGGLVQAGGSLSLSCAASGFIFGRYAMGWYRQAPGKERELVAVITWSGGRTYYADSVKGRFTISRDNAKNTVYLQMNSLKPEDTAVYYCAADRYPYHYGYDYWGQGTQVTVSS	high polyreactivity
QVQLVDSGGCLVQAGGSHRLSCSASGRIYPWYAMVWYRQAPGKERELVASITRNGGDTYYADSVKGRFTISRDNAKNTVYLQMNSLKPEDTAVYYCNAVRGYWFRQKDTIELGYWGQGTQVTVSS	high polyreactivity
QVQLVDSGGGFVQAGGSLRLSCAASGFIFRSYAMRWYRTAPGKERELVAAITKSGGRTYYADSVKGRFTISRDNAKNTVYLQMNSLKPEDTAVYYCAADGAYGGYDYWGQGTLVTVSS	low polyreactivity
QVQLVDSGGGIVQAGGSLRLRCAASGFTFDFYAMGWYRQAPGKERELVADISSSDGSTYADSVKGRFTISRDNAKNTVYLQMNSLNPEDTAVYYCAADYDNQYDFSLDDEYWGQVTQVTVSS	low polyreactivity
QVQLVDSGGGIVQAGGSLRLSCPASGITFPKYAMGWYRQAPGKERELVAAITKSSGSTYYADSVKGRFTISRDNAKNTVYLQMKSLKPEDTAVYYCAARRVNHIRSYSYVSNYGYWGQGTQVTVSS	high polyreactivity
QVQLVDSGGGIVQAGGSLRVSCAASGRTFWYYTMGWYIQAPGKERELVAAITSGGSKYYSDSVKGRFTISRDNAKNTVYLQMISLNPEDTAVYYCAAYLLPAYSRISNDYWGQGTQVTVSS	high polyreactivity
QVQLVDSGGGKVQAGGSLRLSCAASGITFSRNAMGWYRQAPGKEMELVAAITWNGGRTYYADSVKGRFTISRDNAKNTVDLQMNSLKPEDTAVYYCAADSGTRNLASYRYYYWGQGTQGTVSS	high polyreactivity
